Test results from patent US20090117124A1 (Pfizer, published 2009).

Experiments:
[1] = target: T1, cynomolgus monkey IgE (in cynomolgus serum, Harlan Sera-Lab Ltd) (cynomolgus monkey); assay: capture ELISA, Test 1, Cyno 2
T1 construct: Serum was the source of IgE; eight serum samples; also called cynomolgus IgE; Cyno 1 to Cyno 8 serum samples
Description: (§1) Wells were washed once with 150 μL/well wash buffer (0.05% Tween-20, Sigma, Cat. No. P7949/TBS) then blocked with 150 μL/well 1% BSA (Sigma, Cat. No. A7030) in TBS for 2 hours at room temperature. Wells were washed twice with 150 μL wash buffer. 50 μL human (in-house donors) or cynomolgus serum (Harlan Sera-Lab Ltd, Loughborough) was added from neat to at least 1:16 dilution in 1% BSA/0.05% Tween-20/TBS diluent buffer. […] Wells were incubated for 2 hours at 25° C. before washing (3×150 μL wash buffer). […] Wells were incubated for 1 hour at 25° C. then washed (3×150 μL wash buffer). Streptavidin-HRP (Amersham Bioscience, Cat. No. RPN 1231) diluted 1:1000 in diluent buffer was added to all wells and incubated for 45 minutes at room temperature. Wells were washed (3×150 […] wash buffer). 50 μL OPD (Dako, Cat. No. S2045) was added to all wells and the color allowed to develop for 10 minutes before stopping the reaction with 50 μl 0.6M H₂SO₄ and the absorbance measured at 490 nm.

[2] = target: T1, cynomolgus monkey IgE (in cynomolgus …); assay: capture ELISA, Test 1, Cyno 3
Description: as §1

[3] = target: T1, cynomolgus monkey IgE (in cynomolgus …); assay: capture ELISA, Test 1, Cyno 5
Description: as §1

[4] = target: T1, cynomolgus monkey IgE (in cynomolgus …); assay: capture ELISA, Test 1, Cyno 6
Description: as §1

[5] = target: T2, free IgE in human serum (healthy volunteers, in-house donors) (human, UniProt P01854-1 1-428); assay: serum free IgE depletion ELISA; DIN 0284
T2 construct: Kept apart from the bought myeloma IgE because it is native serum IgE of single donors; also called serum IgE
Description: (§2) The next day ELISA plates were washed 1× with 300 μL/well wash buffer (0.05% Tween-20, Sigma, Cat. No. P7949/TBS) then blocked with 150 μL/well 1% BSA (Sigma, Cat. No. A7030) in TBS for 1 hour at room temperature.

[6] = target: T2, free IgE in human serum (healthy …); assay: serum free IgE depletion ELISA; DIN 0748
Description: as §2

[7] = target: T2, free IgE in human serum (healthy …); assay: serum free IgE depletion ELISA; DIN 0011 experiment 1
Description: as §2

[8] = target: T2, free IgE in human serum (healthy …); assay: serum free IgE depletion ELISA; DIN 0321 experiment 1
Description: as §2

[9] = target: T2, free IgE in human serum (healthy …); assay: serum free IgE depletion ELISA; DIN 0623 experiment 1
Description: as §2

[10] = target: T2, free IgE in human serum (healthy …); assay: serum free IgE depletion ELISA; DIN 0632 experiment 1
Description: as §2

T2 sequence (P01854 other isoform, or with tags, fused parts or gaps): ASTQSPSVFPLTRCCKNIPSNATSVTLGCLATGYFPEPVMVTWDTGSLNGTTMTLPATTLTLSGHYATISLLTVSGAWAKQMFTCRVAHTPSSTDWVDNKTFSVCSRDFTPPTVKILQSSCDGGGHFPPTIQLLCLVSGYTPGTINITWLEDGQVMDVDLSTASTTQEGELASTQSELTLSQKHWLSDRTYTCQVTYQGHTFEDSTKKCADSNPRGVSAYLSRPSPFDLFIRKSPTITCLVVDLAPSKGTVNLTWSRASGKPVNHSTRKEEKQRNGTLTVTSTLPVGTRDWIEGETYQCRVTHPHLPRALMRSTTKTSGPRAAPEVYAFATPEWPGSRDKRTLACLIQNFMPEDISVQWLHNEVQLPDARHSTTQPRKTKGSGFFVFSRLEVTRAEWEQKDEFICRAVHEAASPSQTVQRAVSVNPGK

B1: 5.948.1 (recombinant) (antibody, human IgG2, kappa, V domains shown)
VH: QVQLVQSGAEVKKPGASVKVSCKASGYTFTSYDINWVRQATGQGLEWMGWMDPNSGNTGYAQKFQGRVTMTRNTSISTAYMELSSLRSEDTAVYYCARGHYDSDGYYSFSGMDVWGQGTTVTVSS
VL: not shown
notes: Human IgG2 kappa; leader omitted; Two batches were tested in some assays; also called recombinant 5.948.1; 5.948.1 - Batch 1 (762.8 µg/mL)
IgE concentration detected [1]: 464 ng/mL | IgE concentration detected [2]: 457 ng/mL | IgE concentration detected [3]: 837 ng/mL | IgE concentration detected [4]: 53 ng/mL | IC25 ng/mL [5]: 2.45 µg/mL | IC25 ng/mL [6]: 25.1 µg/mL | IC25 ng/mL [7]: 3.3 µg/mL | IC25 ng/mL [8]: 1.34 µg/mL | IC25 ng/mL [9]: 0.5 µg/mL | IC25 ng/mL [10]: 8.91 µg/mL
